This is an account of results in patent US20240239881A1 (Innovent, published 2024).

For one assay, the target named is T1, Rabbit ANG2 (rabbit, UniProt G1T9B3 19-496).
T1 sequence: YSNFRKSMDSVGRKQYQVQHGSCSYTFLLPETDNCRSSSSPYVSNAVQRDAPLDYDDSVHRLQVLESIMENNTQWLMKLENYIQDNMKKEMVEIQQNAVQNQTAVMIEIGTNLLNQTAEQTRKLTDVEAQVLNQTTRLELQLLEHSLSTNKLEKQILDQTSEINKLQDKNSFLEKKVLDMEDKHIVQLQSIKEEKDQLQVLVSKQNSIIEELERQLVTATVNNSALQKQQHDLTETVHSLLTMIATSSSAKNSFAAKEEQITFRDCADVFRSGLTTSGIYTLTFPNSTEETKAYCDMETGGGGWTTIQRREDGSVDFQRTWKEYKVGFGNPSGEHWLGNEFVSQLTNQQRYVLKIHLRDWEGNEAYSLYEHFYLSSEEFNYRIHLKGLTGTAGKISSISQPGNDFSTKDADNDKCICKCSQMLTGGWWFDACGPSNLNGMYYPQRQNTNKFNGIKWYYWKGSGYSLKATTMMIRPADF
The assay is described as follows: SPR, Biacore T200, antibody captured on Protein G chip, experiment 2. The method, then: (§1) The antibody was diluted to 1 μg/mL and was captured onto channel 2 for 30 s, and channel 1 was the blank control channel. The gradient-diluted Human ANG2, Rhesus ANG2, Rabbit ANG2, Rat ANG2 and Mouse ANG2 were sequentially injected into channels 1 and 2 of the chip, from low to high concentrations (0-32 nM), at a flow rate of 30 μL/min, with one concentration per cycle, and with 180 s association time and 1200 s dissociation time at 25° C. Finally, the chip was regenerated using Glycine pH 1.5 at 30 μL/min for 30 s. The affinity assay was repeated three times.
(SPR reads the build-up and loss of mass on a sensor chip optically.)

The target in the next assay is T2, Rhesus ANG2 (rhesus, UniProt F6QXG0 19-496).
T2 sequence: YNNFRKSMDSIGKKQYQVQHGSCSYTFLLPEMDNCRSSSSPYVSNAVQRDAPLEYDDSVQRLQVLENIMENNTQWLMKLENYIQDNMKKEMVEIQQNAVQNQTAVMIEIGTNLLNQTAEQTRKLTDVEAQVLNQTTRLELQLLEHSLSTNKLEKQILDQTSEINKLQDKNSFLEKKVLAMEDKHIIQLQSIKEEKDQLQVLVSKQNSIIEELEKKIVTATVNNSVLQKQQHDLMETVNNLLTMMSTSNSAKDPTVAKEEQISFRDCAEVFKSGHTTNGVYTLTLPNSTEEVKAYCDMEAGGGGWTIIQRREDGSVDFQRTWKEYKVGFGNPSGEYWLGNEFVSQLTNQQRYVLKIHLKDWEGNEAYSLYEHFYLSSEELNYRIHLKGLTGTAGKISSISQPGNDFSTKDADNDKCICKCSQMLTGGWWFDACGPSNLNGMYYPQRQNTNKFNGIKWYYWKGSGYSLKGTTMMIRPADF
Described as above. The method, then: as §1

Assay [1] concerns the target T3, human Ang2 (human, UniProt O15123 19-496, limits assumed).
T3 construct: also called hAng2; h Ang2
T3 sequence: T2 sequence with V279I, L284F, V291I, A410G, G468A
The assay is described as above. The method, then:
as §1

In assay [2] the target is T3, human Ang2. The assay is described as follows: ForteBio BLI, antibody on AHQ sensor, 100 nM antigen, 1:1 model. As to the method: (§2) The equilibrium dissociation constants (KD) of the above exemplary antibodies of the present invention binding to human Ang2 (h Ang2), cynomolgus monkey Ang2 (cAng2), murine Ang2 (mAng2), and human Ang1 (hAng1) were determined using the biological optical interferometry (ForteBio) assay.
(§3) The ForteBio affinity assay was performed according to the existing method (Estep, P et al., High throughput solution-based measurement of antibody-antigen affinity and epitope binning. MAbs, 2013.5 (2): p. 270-8). Briefly, the sensor was equilibrated in the assay buffer off-line for 30 min, followed by on-line detection for 60 s to establish the baseline. Then the purified antibodies obtained as described above were loaded on-line onto an AHQ sensor (ForteBio) for ForteBio affinity assay. The sensors with loaded antibodies were exposed to 100 nM of hAng2, cAng2, mAng2, and hAng1 antigens for 5 min, and then were transferred into the assay buffer for dissociation for 5 min to determine the dissociation rate. Kinetic analysis was performed using a 1:1 binding model.
For orientation: Biolayer interferometry detects binding as a change in optical thickness at a sensor tip.

The target of assay [3] is T4, hAng2-Fc protein (Sino Biological, Cat No.: 10691-H02H) (human, UniProt O15123 19-496).
T4 sequence: T2 sequence with V279I, L284F, V291I, A410G, G468A
The assay is described as follows: cell-based or functional assay.

Another assay addresses T5, Human Ang1 (human, UniProt Q15389 20-498, limits assumed).
T5 construct: also called hAng1
T5 sequence (looked up): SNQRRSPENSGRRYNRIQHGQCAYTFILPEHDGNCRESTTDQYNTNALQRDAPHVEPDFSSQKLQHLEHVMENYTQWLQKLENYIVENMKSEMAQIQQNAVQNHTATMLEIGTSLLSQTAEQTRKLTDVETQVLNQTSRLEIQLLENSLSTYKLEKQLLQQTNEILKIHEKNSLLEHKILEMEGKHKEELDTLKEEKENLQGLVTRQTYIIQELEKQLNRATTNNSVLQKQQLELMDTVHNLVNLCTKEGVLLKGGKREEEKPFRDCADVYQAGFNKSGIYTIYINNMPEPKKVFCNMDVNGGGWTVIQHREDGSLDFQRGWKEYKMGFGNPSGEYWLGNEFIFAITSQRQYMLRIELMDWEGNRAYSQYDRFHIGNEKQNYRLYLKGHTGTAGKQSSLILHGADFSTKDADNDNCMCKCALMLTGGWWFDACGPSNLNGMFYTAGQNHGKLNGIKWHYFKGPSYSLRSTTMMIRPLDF
The assay is described as follows: ForteBio BLI, antibody on AHQ sensor. The method, then: as §2, §3

Positions count from the first letter of the chain named.

B1: humanized antibody hz81H10.4 (antibody, human IgG1, kappa, V domains shown)
VH: EVQLVESGGGLVKPGGSLRLSCAASGFTFSNYWMNWVRQAPGKGLEWVAEIRLKSNNYATHYAESVKGRFTISRDVSKNTVYLQMNSLKTEDTAVYYCTDTAPFAYWGQGTLVTVSS
VL: DIQMTQSPSSLSASVGDRVTITCKASQDVGTDVAWYQQKPGKAPKLLIYWASTRHTGVPSRFSGSGSGTDFTLTISSLQPEDFATYYCQQYSSYPLTFGGGTKVEIKR
notes: also called IBI335
Broadly, the Kd is the concentration at which binding is half-saturated. As usually defined, the koff is the rate constant with which the complex falls apart. A higher koff goes with a short-lived complex. As a reminder, the kon is a measure of how fast the partners come together. Read a high kon as fast association. B1: the Kd in the assay with Rabbit ANG2 worked out at 477 pM; with Rhesus ANG2, 126 pM; in the assay with human Ang2 [1] it was 31.9 pM; with human Ang2 [2], 1250 pM. Besides, the values for the koff with Rabbit ANG2, with Rhesus ANG2 and with human Ang2 [1] were 0.000152 s⁻¹, 3.67e-05 s⁻¹ and 8.25e-06 s⁻¹, respectively. Also, the kon with Rabbit ANG2 worked out at 318000 M⁻¹ s⁻¹; in the assay with Rhesus ANG2, 291000 M⁻¹ s⁻¹; with human Ang2 [1], 259000 M⁻¹ s⁻¹. For the same molecule, the “IC50 (read off the curve)” value in assay [3] was ~5000 pM. Moreover, the binding result with Human Ang1 is “no binding (tested: 100 nM)”.
